Results on two molecules are retold here after patent US7994123B2, “Hybrid proteins with ErbB4 extracellular domain and neuregulin heparin-binding domain for targeting” (Wayne State University, priority 2004, dated 2011).

The subject of data set [1] is malignant masses (carcinomas, sarcomas, gliomas and medulloblastomas). Description: Anti-tumor effects in human patients. It counts as in vivo. An excerpt:
All patients to be treated have histologically confirmed malignant masses confirmed by biopsy or cytology are entered. Malignant diseases including carcinomas, sarcomas, gliomas and medulloblastomas. […] Patients in all stages of malignant disease involving any organ system are included. Staging describes both tumor and host, including organ of origin of the tumor, histologic type, histologic grade, extent of tumor size, site of metastases and functional status of the patient. For a general classification includes the known ranges of Stage 1 (localized disease) to Stage 4 (widespread metastases), see Abraham J et al., Bethesda Handbook of Clinical Oncology, Lippincott, Williams & Wilkins, Philadelphia, Pa., 2001 (or a more recent edition). Patient history is obtained and physical examination performed along with conventional tests of cardiovascular and pulmonary function and appropriate radiologic procedures. The malignant masses are visible on x-ray or CT scan and/or are measurable with calipers. They have not been undergoing any other anticancer treatment for at least one month and have a clinical KPS of at least 50.
HBD-S-B4 is administered intravenously in doses of 0.01-100 μg/kg intratumorally once every 2-7 days. Patient Evaluation: Assessment of response of the tumor to the therapy is made once per week during therapy and 30 days thereafter using CT or x-ray visualization. Depending on the response to treatment, side effects, and the health status of the patient, treatment is terminated or prolonged from the standard protocol given above. Tumor response criteria are those established by the WHO and RECIST (Response Evaluation Criteria in Solid Tumors) summarized below (e.g., Abraham et al., supra)
The efficacy of the therapy in a patient population is evaluated using conventional statistical methods, including, for example, the Chi Square test or Fisher's exact test. Long-term and short term changes in measurements are evaluated separately.

In data set [2] the test system is erbB receptor phosphorylation (p185) in L6 cells. Description: L6 assay: block of NRG-induced erbB receptor phosphorylation (p185). In kind it is cell-based. Particulars: preincubated with L6 muscle cells one hour, thoroughly washed before adding recombinant neuregulin. The protocol: 4. Cell culture: The L6 cells were cultured in DMEM supplemented with 10% fetal calf serum, 1 mM L-glutamine and 1000 U/ml penicillin/streptomycin at 37° C. in 10% CO2 incubator. The HEK293 cells were cultured in DMEM with 10% fetal calf serum, 1 mM L-glutamine, 2 mM sodium pyruvate, 0.1 mM non-essential amino acids, 1000 U/ml penicillin/streptomycin at 37° C. in 10% CO2 incubator. The selective antibiotics Geneticin 200 μg/ml (Gibco-Invitrogen) was added to the cell cultures of stably transfected HEK293 cells harboring the NRG antagonists. 5. Stable expression of NRG antagonists in HEK293 cells: HEK293 cells were cultured in […] flasks to 80% confluence and transfected with the four NRG antagonist constructs using lipofectamine 2000 (Invitrogen Life Science) as instructed. The antibiotic Geneticin was then added at a concentration of 400 μg/ml to the transfected HEK293 cells to select the positive antagonist transfected cells. After three weeks of Geneticin selection, the transfected HEK293 cells were diluted and plated in 96 well plates to yield single positive clones. The single clones that expressed the highest levels of antagonists (confirmed by western blot using HA antibody) were then maintained in culture media with 200 μg/ml Geneticin. Optimem I (Gibco-Invitrogen) was applied to the stably transfected NRG antagonist cell lines at 37° C. in 10% CO2 incubator for 2 days. The conditioned Optimem I media was then used in the following experiments. 6. Heparin column binding: The conditioned media containing the four NRG antagonists was passed through the heparin column to allow binding to heparin. The excessive unbound antagonist proteins were washed off by 1×PBS twice. The antagonist proteins were then eluted by increasing concentration of NaCl (0.25, 0.3, 0.4, 0.5, 0.6 and 1M). The flow through solution from each step was examined by anti-HA western blots, as described later, to determine heparin binding ability of the antagonists. 7. Purification and quantitation of recombinant proteins: The NRG antagonists were purified by anti-HA affinity matrix (3F10) (rat mAb) according to manufacturer's instructions. Briefly, the column was equilibrated with buffer containing 20 mM Tris pH 7.5, 0.1 M NaCl, 0.1 M EDTA, and each antagonist in conditioned medium was applied individually to the anti-HA affinity matrix. Excess unbound antagonist proteins were washed with 20 volume of washing buffer (20 mM Tris pH 7.5, 0.1 M NaCl, 0.1 M EDTA and 0.05% Tween 20). The bound NRG antagonists were eluted with 0.1 M glycine (pH 2). The purified recombinant protein was then quantified using a BioRad Protein Assay kit (Bio-Rad, Hercules, Calif.) 8. Silver stain: Both the conditioned media and the purified NRG antagonists were resolved on 7.5% reducing SDS-polyacrylamide gels. The gel was fixed with 30% ethanol and 10% acetic acid for 30 min. 10% ethanol and ultrapure water were used subsequently to wash the gel before staining with SilverSNAP stain solution with enhancer for 30 min. The gel was then developed using SilverSNAP developer solution with enhancer. 5% acetic acid was used to stop the reaction when the desired band intensity was reached. The gel was dried on filter paper using a vacuum gel dyer. 9. […] Positive control L6 cells were treated with 50 pM NRG alone. L6 cell lysates were prepared and run on 5% SDS-PAGE gel. Western blots of erbB receptor phosphorylation were performed using 4G10 antibody. 10. Western blot: Western blots were performed on both conditioned NRG antagonist media and the antagonist-treated L6 cells. The antagonist proteins and the L6 cells were solubilized in SDS sample buffer and boiled for 5 min as described above (see also Li et al., supra). The NRG antagonists run on 7.5% SDS-PAGE gel were detected by anti-HA mAb HA.11. Phosphotyrosine mAb 4G10 was used to detect phosphorylated erbB receptor (p185) in L6 cell western blot analysis following resolution on overrun 5% reducing SDS-polyacrylamide gels. […]

B1: HBD-S-B4: prototypical fusion protein of NRG HBD, spacer and erbB4 ECD (SEQ ID NO:14) (protein)
chain: QKMKPATGLWVWVSLLVAAGTVQPSDSQSGYKKKERGSGKKPESAAGSQSPALPPRLKEMKSQESAAGSKLVLRCETSSEYSSLRFKWFKNGNELNRKNKPQNIKIQKKPGKSELRINKASLADSGEYMCKVISKLGNDSASANITIVESNEIITGMPASTEGAYVSSESPIRISVSTEGANTSSSTSTSTTGTSGTQSVCAGTENKLSSLSDLEQQYRALRKYYENCEVVMGNLEITSIEHNRDLSFLRSVREVTGYVLVALNQFRYLPLENLRIIRGTKLYEDRYALAIFLNYRKDGNFGLQELGLKNLTEILNGGVYVDQNKFLCYADTIHWQDIVRNPWPSNLTLVSTNGSSGCGRCHKSCTGRCWGPTENHCQTLTRTVCAEQCDGRCYGPYVSDCCHRECAGGCSGPKDTDCFACMNFNDSGACVTQCPQTFVYNPTTFQLEHNFNAKYTYGAFCVKKCPHNFVVDSSSCVRACPSSKMEVEENGIKMCKPCTDICPKACDGIGTGSLMSAQTVDSSNIDKFINCTKINGNLIFLVTGIHGDPYNAIEAIDPEKLNVFRTVREITGFLNIQSWPPNMTDFSVFSNLVTIGGRVLYSGLSLLILKQQGITSLQFQSLKEISAGNIYITDNSNLCYYHTINWTTLFSTINQRIVIRDNRKAENCTAEGMVCNHLCSSDGCWGPGPDQCLSCRRFSRGRICIESCNLYDGEFREFENGSICVECDPQCEKMEDGLLTCHGPGPDNCTKCSHFKDGPNCVEKCPDGLQGANSFIFKYADPDRECHPCHPNCTQGCNGPTSHDCIYYPWTGHSTLPQHAKN
B1: in data set [1] (All Patients), the “% of Patients Responding, <PR” value is 5.3%; the “% of Patients Responding, CR” value stood at 59.7%; the “% of Patients Responding, PR” value turned out to be 11.3%. Moreover, in data set [1] (All Patients (400 treated)), the “No. of patients, Response <PR” value is 21; the “No. of patients, Response CR” value is 239; the “No. of patients, Response PR” value is 45. Besides, the “% of Patients Responding, CR + PR + <PR” value in data set [1] (Brain glioma/astrocytoma) amounted to 61%. For the same molecule, the “% of Patients Responding, CR + PR + <PR” value in data set [1] (Breast adenocarcinoma) is on record as 85%. The “% of Patients Responding, CR + PR + <PR” value in data set [1] (Gastrointestinal carcinoma) was determined as 77%. Moreover, the “% of Patients Responding, CR + PR + <PR” value in data set [1] (Ovarian carcinoma) was 82%. Moreover, in data set [1] (all tumors), the overall response rate result is recorded as “about 76%”; the “patients with objective clinical responses” value is “Three hundred and five”. Besides, in data set [1] (human, in vivo), the “CBC, renal and liver functions tests after treatments” value is on record as “do not change significantly”; the “average duration of responses” value was 24 months; the “incidence of side effects: bloody nose” value was 1 % of total treatments; the “incidence of side effects: blurred vision” value is listed as < 1 % of total treatments. In data set [1] (human, in vivo), the “incidence of side effects: chills” value is given as 10 % of total treatments, the “incidence of side effects: cramps” value is recorded as < 1 % of total treatments, the “incidence of side effects: diarrhea” value was 1 % of total treatments and the “incidence of side effects: dizziness” value is < 1 % of total treatments. In data set [1] (human, in vivo), the “incidence of side effects: fatigue” value is given as < 1 % of total treatments, the “incidence of side effects: feeling faint” value is < 1 % of total treatments, the “incidence of side effects: fever” value was 10 % of total treatments and the “incidence of side effects: flushing” value is on record as 1 % of total treatments. Also, in data set [1] (human, in vivo), the “incidence of side effects: gastritis” value is recorded as < 1 % of total treatments, the “incidence of side effects: headache” value is recorded as 3 % of total treatments, the “incidence of side effects: hypertension” value is given as 2 % of total treatments and the “incidence of side effects: hypotension” value is 2 % of total treatments. Besides, in data set [1] (human, in vivo), the “incidence of side effects: itching/hives” value is 1 % of total treatments, the “incidence of side effects: joint pain” value is given as 2 % of total treatments, the “incidence of side effects: nausea” value is 5 % of total treatments and the “incidence of side effects: pain” value is 5 % of total treatments. Moreover, in data set [1] (human, in vivo), the “incidence of side effects: rash” value is 2 % of total treatments, the “incidence of side effects: redness on hand” value is given as < 1 % of total treatments, the “incidence of side effects: respiratory” value is given as 3 % of total treatments and the “incidence of side effects: tachycardia” value is reported as 2 % of total treatments. In addition, in data set [1] (human, in vivo), the “incidence of side effects: twitching” value is recorded as < 1 % of total treatments; the “incidence of side effects: vomiting” value is 2 % of total treatments; the “time at which objective remissions are evident” value was “after four weeks of therapy”; the toxicity result was “mild short-lived fever, fatigue and anorexia not requiring treatment”. For the same molecule, the positive tumor responses in data set [1] (patients with breast, ovarian and gastrointestinal tumors) is 77-85%.

B2: B4: purified His-tagged erbB4 extracellular domain lacking the HBD (protein)
chain: VCAGTENKLSSLSDLEQQYRALRKYYENCEVVMGNLEITSIEHNRDLSFLRSVREVTGYVLVALNQFRYLPLENLRIIRGTKLYEDRYALAIFLNYRKDGNFGLQELGLKNLTEILNGGVYVDQNKFLCYADTIHWQDIVRNPWPSNLTLVSTNGSSGCGRCHKSCTGRCWGPTENHCQTLTRTVCAEQCDGRCYGPYVSDCCHRECAGGCSGPKDTDCFACMNFNDSGACVTQCPQTFVYNPTTFQLEHNFNAKYTYGAFCVKKCPHNFVVDSSSCVRACPSSKMEVEENGIKMCKPCTDICPKACDGIGTGSLMSAQTVDSSNIDKFINCTKINGNLIFLVTGIHGDPYNAIEAIDPEKLNVFRTVREITGFLNIQSWPPNMTDFSVFSNLVTIGGRVLYSGLSLLILKQQGITSLQFQSLKEISAGNIYITDNSNLCYYHTINWTTLFSTINQRIVIRDNRKAENCTAEGMVCNHLCSSDGCWGPGPDQCLSCRRFSRGRICIESCNLYDGEFREFENGSICVECDPQCEKMEDGLLTCHGPGPDNCTKCSHFKDGPNCVEKCPDGLQGANSFIFKYADPDRECHPCHPNCTQGCNGPTSHDCIYYPWTGHSTLPQHAKN
modifications: left off: small tags and cut ends
notes: purified His-tagged erbB4 extracellular domain lacking the HBD
Consider B2, for which, in data set [2], the “sustained blockade of neuregulin signaling (p185 phosphorylation)” value is given as “no sustained effects”.
